Measured values as given in the supplement of paper PMC9876800.

tested on: peptide library, one residue held at a place counted from the S/T acceptor; test: relative phosphorylation of the sub-library (ratio to the mean residue at this position); human; higher = residue favoured; conditions: N fixed; at -3
Outline: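 Spots on streptavidin membranes were phosphorimaged and quantified by densitometry to measure phosphorylation of biotinylated degenerate peptide sub-libraries by purified recombinant kinases, human or orthologue constructs. The reactions ran in 384-well plates for 90 min under kinase-specific conditions, with peptides at 50 μM and 50 μM ATP spiked with γ-32P-ATP. Relative sub-library phosphorylation is the ratio to the mean residue at that position.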

Chain of CAMK2D, construct: Full length (Q13557 whole entry, looked up): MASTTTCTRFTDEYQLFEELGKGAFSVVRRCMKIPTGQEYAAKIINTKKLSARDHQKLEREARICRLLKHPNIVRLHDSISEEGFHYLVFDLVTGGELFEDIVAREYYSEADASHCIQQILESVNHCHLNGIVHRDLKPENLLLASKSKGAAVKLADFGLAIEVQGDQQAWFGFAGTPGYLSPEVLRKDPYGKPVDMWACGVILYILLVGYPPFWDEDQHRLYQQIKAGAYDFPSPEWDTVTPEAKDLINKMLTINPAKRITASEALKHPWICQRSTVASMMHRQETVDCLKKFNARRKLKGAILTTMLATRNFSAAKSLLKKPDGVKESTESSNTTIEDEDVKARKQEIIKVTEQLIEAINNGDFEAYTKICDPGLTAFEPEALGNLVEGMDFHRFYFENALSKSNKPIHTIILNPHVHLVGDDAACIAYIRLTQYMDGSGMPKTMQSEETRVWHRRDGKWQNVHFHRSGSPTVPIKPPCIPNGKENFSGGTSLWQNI
Chain of TSSK1B, construct: Full length (Q9BXA7 whole entry, looked up): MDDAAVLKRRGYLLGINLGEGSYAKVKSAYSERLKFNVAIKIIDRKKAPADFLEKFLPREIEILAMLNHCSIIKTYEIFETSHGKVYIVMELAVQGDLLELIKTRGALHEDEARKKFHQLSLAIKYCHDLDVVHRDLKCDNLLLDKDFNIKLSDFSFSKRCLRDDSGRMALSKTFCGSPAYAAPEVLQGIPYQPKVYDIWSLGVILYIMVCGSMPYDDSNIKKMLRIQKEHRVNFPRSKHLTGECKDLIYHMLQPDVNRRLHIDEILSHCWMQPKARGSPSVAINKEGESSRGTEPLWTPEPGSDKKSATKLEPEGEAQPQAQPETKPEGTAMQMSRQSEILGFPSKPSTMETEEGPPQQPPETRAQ
Chain of CDKL1, construct: aa2-304 (Q00532 2-304, looked up): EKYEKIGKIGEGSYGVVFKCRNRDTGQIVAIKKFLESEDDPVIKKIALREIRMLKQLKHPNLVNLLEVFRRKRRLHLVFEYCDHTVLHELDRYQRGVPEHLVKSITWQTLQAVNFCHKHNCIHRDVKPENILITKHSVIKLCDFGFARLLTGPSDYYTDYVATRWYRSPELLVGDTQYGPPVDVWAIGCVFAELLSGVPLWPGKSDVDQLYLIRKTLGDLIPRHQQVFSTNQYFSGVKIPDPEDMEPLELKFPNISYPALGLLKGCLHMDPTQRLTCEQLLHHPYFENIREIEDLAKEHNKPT
Chain of ACVR1B, construct: aa150-end (P36896 150-505, looked up): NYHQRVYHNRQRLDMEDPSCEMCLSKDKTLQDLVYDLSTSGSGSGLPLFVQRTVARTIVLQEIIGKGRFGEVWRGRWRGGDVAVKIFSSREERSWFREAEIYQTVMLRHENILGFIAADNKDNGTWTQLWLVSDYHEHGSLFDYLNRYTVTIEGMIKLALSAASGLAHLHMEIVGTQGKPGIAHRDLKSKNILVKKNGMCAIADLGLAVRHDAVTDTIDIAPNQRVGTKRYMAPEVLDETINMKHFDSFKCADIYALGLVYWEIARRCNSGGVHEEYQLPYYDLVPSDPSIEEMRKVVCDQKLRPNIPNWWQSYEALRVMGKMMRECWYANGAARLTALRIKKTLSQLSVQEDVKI
Chain of CIT, construct: aa1-449 (O14578 1-449, looked up): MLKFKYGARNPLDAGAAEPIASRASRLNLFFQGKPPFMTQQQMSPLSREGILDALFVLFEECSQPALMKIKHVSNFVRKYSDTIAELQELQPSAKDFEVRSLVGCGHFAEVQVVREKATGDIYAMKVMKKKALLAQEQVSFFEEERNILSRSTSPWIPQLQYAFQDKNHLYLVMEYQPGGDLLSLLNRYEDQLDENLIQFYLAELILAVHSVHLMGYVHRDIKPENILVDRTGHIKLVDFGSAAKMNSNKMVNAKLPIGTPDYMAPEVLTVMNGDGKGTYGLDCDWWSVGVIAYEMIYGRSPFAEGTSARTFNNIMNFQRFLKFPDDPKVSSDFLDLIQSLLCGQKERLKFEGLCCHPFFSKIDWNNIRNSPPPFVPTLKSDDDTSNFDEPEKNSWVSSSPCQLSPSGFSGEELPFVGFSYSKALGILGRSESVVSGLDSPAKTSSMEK
Chain of CSNK1A1L, construct: Full length (Q8N752 whole entry, looked up): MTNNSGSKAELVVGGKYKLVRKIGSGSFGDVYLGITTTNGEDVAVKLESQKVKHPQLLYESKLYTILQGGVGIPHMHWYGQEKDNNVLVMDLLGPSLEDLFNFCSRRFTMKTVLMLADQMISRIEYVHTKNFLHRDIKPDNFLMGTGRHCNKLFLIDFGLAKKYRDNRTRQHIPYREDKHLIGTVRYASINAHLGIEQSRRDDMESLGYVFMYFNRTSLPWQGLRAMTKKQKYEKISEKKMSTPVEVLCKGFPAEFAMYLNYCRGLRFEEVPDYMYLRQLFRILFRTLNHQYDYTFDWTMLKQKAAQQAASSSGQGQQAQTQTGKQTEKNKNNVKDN
Chain of PAK1, construct: aa150-end (Q13153 150-545, looked up): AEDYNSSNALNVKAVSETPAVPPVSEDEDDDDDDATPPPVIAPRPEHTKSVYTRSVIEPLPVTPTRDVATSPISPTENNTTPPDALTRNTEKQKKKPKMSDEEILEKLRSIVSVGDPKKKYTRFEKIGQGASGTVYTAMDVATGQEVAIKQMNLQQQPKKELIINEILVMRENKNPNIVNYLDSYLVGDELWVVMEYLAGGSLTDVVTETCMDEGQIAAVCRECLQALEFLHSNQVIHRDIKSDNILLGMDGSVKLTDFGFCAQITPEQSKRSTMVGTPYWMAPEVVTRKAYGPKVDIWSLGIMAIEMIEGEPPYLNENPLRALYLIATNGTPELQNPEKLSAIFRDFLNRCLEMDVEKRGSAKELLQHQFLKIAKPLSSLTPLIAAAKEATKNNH
Chain of CSNK1G3, construct: Full length (Q9Y6M4 whole entry, looked up): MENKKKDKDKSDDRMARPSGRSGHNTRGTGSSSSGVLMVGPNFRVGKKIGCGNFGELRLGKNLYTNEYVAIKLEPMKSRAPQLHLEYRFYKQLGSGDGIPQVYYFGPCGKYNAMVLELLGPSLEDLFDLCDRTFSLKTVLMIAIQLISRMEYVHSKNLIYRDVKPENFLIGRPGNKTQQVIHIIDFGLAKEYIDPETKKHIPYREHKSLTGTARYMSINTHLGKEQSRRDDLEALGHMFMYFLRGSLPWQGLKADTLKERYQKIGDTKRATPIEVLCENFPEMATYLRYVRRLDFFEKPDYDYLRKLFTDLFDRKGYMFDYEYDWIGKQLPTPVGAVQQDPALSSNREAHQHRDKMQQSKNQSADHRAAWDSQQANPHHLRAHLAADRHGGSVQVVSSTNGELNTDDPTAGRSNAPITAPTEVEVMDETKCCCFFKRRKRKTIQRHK

Row | Substance | relative phosphorylation
1 | PAK1, construct: aa150-end (from UniProt Q13153) | 0.965
2 | CAMK2D, construct: Full length (from UniProt Q13557) | 0.689
3 | CDKL1, construct: aa2-304 (from UniProt Q00532) | 0.585
4 | ACVR1B, construct: aa150-end (from UniProt P36896) | 0.96
5 | TSSK1B, construct: Full length (from UniProt Q9BXA7) | 0.887
6 | CSNK1A1L, construct: Full length (from UniProt Q8N752) | 0.704
7 | CSNK1G3, construct: Full length (from UniProt Q9Y6M4) | 0.645

same assay, conditions: N fixed; at -4

Row | Substance | relative phosphorylation
8 | CIT, construct: aa1-449 (from UniProt O14578) | 0.735
9 | PAK1, construct: aa150-end (from UniProt Q13153) | 1.01
10 | CAMK2D, construct: Full length (from UniProt Q13557) | 0.707
11 | CDKL1, construct: aa2-304 (from UniProt Q00532) | 0.925
12 | ACVR1B, construct: aa150-end (from UniProt P36896) | 0.954
13 | TSSK1B, construct: Full length (from UniProt Q9BXA7) | 0.889
14 | CSNK1A1L, construct: Full length (from UniProt Q8N752) | 0.96
15 | CSNK1G3, construct: Full length (from UniProt Q9Y6M4) | 0.801

same assay, conditions: N fixed; at -5

Row | Substance | relative phosphorylation
16 | CIT, construct: aa1-449 (from UniProt O14578) | 0.465
17 | PAK1, construct: aa150-end (from UniProt Q13153) | 1.03
18 | CAMK2D, construct: Full length (from UniProt Q13557) | 0.597
19 | CDKL1, construct: aa2-304 (from UniProt Q00532) | 0.919
20 | ACVR1B, construct: aa150-end (from UniProt P36896) | 1.01
21 | TSSK1B, construct: Full length (from UniProt Q9BXA7) | 0.477
22 | CSNK1A1L, construct: Full length (from UniProt Q8N752) | 0.874
23 | CSNK1G3, construct: Full length (from UniProt Q9Y6M4) | 1.04

same assay, conditions: P fixed; at +1

Row | Substance | relative phosphorylation
24 | CIT, construct: aa1-449 (from UniProt O14578) | 0.461
25 | PAK1, construct: aa150-end (from UniProt Q13153) | 0.228
26 | CAMK2D, construct: Full length (from UniProt Q13557) | 0.278
27 | CDKL1, construct: aa2-304 (from UniProt Q00532) | 1.92
28 | ACVR1B, construct: aa150-end (from UniProt P36896) | 0.691
29 | TSSK1B, construct: Full length (from UniProt Q9BXA7) | 0.176
30 | CSNK1A1L, construct: Full length (from UniProt Q8N752) | 0.719
31 | CSNK1G3, construct: Full length (from UniProt Q9Y6M4) | 0.443

same assay, conditions: P fixed; at +2

Row | Substance | relative phosphorylation
32 | CIT, construct: aa1-449 (from UniProt O14578) | 1.36
33 | PAK1, construct: aa150-end (from UniProt Q13153) | 0.716
34 | CAMK2D, construct: Full length (from UniProt Q13557) | 0.626
35 | CDKL1, construct: aa2-304 (from UniProt Q00532) | 0.774
36 | ACVR1B, construct: aa150-end (from UniProt P36896) | 1.17
37 | TSSK1B, construct: Full length (from UniProt Q9BXA7) | 0.61
38 | CSNK1A1L, construct: Full length (from UniProt Q8N752) | 0.705
39 | CSNK1G3, construct: Full length (from UniProt Q9Y6M4) | 0.482

same assay, conditions: P fixed; at +3

Row | Substance | relative phosphorylation
40 | CIT, construct: aa1-449 (from UniProt O14578) | 1.23
41 | PAK1, construct: aa150-end (from UniProt Q13153) | 1.03
42 | CAMK2D, construct: Full length (from UniProt Q13557) | 1.09
43 | CDKL1, construct: aa2-304 (from UniProt Q00532) | 0.978
44 | ACVR1B, construct: aa150-end (from UniProt P36896) | 1.14
45 | TSSK1B, construct: Full length (from UniProt Q9BXA7) | 0.392
46 | CSNK1A1L, construct: Full length (from UniProt Q8N752) | 0.904
47 | CSNK1G3, construct: Full length (from UniProt Q9Y6M4) | 0.683

same assay, conditions: P fixed; at +4

Row | Substance | relative phosphorylation
48 | CIT, construct: aa1-449 (from UniProt O14578) | 1.43
49 | PAK1, construct: aa150-end (from UniProt Q13153) | 1.4
50 | CAMK2D, construct: Full length (from UniProt Q13557) | 1.81
51 | CDKL1, construct: aa2-304 (from UniProt Q00532) | 0.98
52 | ACVR1B, construct: aa150-end (from UniProt P36896) | 1.42
53 | TSSK1B, construct: Full length (from UniProt Q9BXA7) | 0.702
54 | CSNK1A1L, construct: Full length (from UniProt Q8N752) | 1.1
55 | CSNK1G3, construct: Full length (from UniProt Q9Y6M4) | 0.97

same assay, conditions: P fixed; at -1

Row | Substance | relative phosphorylation
56 | CIT, construct: aa1-449 (from UniProt O14578) | 1.39
57 | PAK1, construct: aa150-end (from UniProt Q13153) | 0.646
58 | CAMK2D, construct: Full length (from UniProt Q13557) | 1.55
59 | CDKL1, construct: aa2-304 (from UniProt Q00532) | 1.02
60 | ACVR1B, construct: aa150-end (from UniProt P36896) | 0.762
61 | TSSK1B, construct: Full length (from UniProt Q9BXA7) | 1.96
62 | CSNK1A1L, construct: Full length (from UniProt Q8N752) | 1.02
63 | CSNK1G3, construct: Full length (from UniProt Q9Y6M4) | 0.579

same assay, conditions: P fixed; at -2

Row | Substance | relative phosphorylation
64 | CIT, construct: aa1-449 (from UniProt O14578) | 0.42
65 | PAK1, construct: aa150-end (from UniProt Q13153) | 1.08
66 | CAMK2D, construct: Full length (from UniProt Q13557) | 0.45
67 | CDKL1, construct: aa2-304 (from UniProt Q00532) | 3.55
68 | ACVR1B, construct: aa150-end (from UniProt P36896) | 0.549
69 | TSSK1B, construct: Full length (from UniProt Q9BXA7) | 0.794
70 | CSNK1A1L, construct: Full length (from UniProt Q8N752) | 1.19
71 | CSNK1G3, construct: Full length (from UniProt Q9Y6M4) | 0.471

same assay, conditions: P fixed; at -3

Row | Substance | relative phosphorylation
72 | CIT, construct: aa1-449 (from UniProt O14578) | 0.739
73 | PAK1, construct: aa150-end (from UniProt Q13153) | 0.823
74 | CAMK2D, construct: Full length (from UniProt Q13557) | 0.909
75 | CDKL1, construct: aa2-304 (from UniProt Q00532) | 0.704
76 | ACVR1B, construct: aa150-end (from UniProt P36896) | 0.947
77 | TSSK1B, construct: Full length (from UniProt Q9BXA7) | 1.3
78 | CSNK1A1L, construct: Full length (from UniProt Q8N752) | 0.741
79 | CSNK1G3, construct: Full length (from UniProt Q9Y6M4) | 0.418

same assay, conditions: P fixed; at -4

Row | Substance | relative phosphorylation
80 | CIT, construct: aa1-449 (from UniProt O14578) | 0.978
81 | PAK1, construct: aa150-end (from UniProt Q13153) | 1.24
82 | CAMK2D, construct: Full length (from UniProt Q13557) | 1.02
83 | CDKL1, construct: aa2-304 (from UniProt Q00532) | 1.05
84 | ACVR1B, construct: aa150-end (from UniProt P36896) | 0.94
85 | TSSK1B, construct: Full length (from UniProt Q9BXA7) | 0.592
86 | CSNK1A1L, construct: Full length (from UniProt Q8N752) | 0.873
